Test results as given in US20180334480A1 (RAMOT AT TEL AVIV UNIVERSITY, published 2018).

Molecular target: human ACE2 protein (Angiotensin-Converting Enzyme 2) (human, UniProt Q9BYF1 18-740)
Test: phage-displayed construct probed with ACE2

Chain of human ACE2 protein (Angiotensin-Converting Enzyme 2) (Q9BYF1 18-740 limits assumed): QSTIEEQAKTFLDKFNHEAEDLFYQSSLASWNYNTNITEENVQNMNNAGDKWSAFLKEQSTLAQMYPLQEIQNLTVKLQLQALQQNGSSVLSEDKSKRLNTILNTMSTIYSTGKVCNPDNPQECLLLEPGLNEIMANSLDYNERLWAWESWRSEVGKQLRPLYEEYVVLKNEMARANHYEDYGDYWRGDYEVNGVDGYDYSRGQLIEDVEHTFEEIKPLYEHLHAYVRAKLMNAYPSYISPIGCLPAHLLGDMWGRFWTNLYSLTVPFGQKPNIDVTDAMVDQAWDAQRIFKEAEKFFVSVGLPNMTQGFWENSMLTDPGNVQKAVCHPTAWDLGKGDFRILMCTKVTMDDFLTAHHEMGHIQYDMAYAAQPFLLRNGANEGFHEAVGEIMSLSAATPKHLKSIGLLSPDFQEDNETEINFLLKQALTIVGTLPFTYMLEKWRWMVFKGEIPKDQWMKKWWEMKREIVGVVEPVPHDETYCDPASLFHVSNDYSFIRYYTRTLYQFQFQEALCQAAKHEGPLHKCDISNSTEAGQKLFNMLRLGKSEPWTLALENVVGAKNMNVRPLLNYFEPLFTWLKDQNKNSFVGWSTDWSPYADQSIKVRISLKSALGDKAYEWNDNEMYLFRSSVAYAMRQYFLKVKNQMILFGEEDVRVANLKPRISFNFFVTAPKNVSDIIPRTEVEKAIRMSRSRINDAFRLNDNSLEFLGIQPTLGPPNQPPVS

B1: initial SARS CoV RBM construct (residues S432-T486) displayed on fth-1 phage (other)
chain: STGNYNYKYRYLRHGKLRPFERDISNVPFSPDGKPCTPPALNCYWPLNDYGFYTT
binding result: no binding
